Stoichiometry N data for two substances are collected here from publication PMC8291764.

For one test, the target named is Kohinoor. The experiment in a line: SEC; purified protein diluted to 10 μM, equilibrated at 6 °C overnight; 250 μL on Superdex 200 Increase 10/300 GL, run at 6 °C, 0.75 mL/min, absorption at 280 nm; elution volumes compared with tetrameric DsRed, dimeric dTomato and monomeric mEGFP. (In gel filtration, larger molecules generally elute earlier.)
For a further test, the target named is Padron. The test is described as above.

Broadly, the stoichiometry N is a count of units in the complex or per binding partner. Substance Kohinoor came in with a stoichiometry N with Kohinoor of 2.

Padron came in with a stoichiometry N in the test with Padron of 4.
